# T1: murine NRP1 (mouse, UniProt P97333)
# T1 chain: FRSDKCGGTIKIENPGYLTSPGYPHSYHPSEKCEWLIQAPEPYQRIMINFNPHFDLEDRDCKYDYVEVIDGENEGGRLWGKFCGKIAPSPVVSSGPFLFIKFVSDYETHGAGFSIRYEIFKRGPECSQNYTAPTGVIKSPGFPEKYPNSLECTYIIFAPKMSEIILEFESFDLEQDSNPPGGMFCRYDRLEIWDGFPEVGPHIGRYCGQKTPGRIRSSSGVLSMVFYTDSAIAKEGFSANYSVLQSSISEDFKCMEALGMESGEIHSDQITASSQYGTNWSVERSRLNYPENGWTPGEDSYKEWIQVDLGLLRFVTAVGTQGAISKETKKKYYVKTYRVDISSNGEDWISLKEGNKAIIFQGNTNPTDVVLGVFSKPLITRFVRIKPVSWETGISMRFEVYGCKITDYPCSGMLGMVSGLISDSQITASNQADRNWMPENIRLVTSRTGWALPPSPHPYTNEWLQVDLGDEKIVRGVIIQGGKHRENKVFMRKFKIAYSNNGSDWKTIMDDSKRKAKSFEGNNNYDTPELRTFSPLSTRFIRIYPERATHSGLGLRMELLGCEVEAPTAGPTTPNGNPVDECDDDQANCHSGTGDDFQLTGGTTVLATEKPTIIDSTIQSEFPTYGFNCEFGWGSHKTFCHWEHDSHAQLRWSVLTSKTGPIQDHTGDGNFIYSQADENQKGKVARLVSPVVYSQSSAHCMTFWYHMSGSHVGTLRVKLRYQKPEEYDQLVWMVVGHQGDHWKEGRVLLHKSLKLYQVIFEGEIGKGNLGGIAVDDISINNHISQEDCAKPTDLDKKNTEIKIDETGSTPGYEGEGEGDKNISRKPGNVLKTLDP
# Columns and labels:
# human NRP1 = human NRP1 (human, UniProt O14786); experiment: competition phage ELISA
# murine NRP1 = biological target: T1, murine NRP1; experiment: competition phage ELISA
IC50 (human NRP1) [nM],IC50 (murine NRP1) [nM],Binder
0.73,3.5,"YW107.4.58 (antibody, V domains shown) VH: EVQLVESGGGLVQPGGSLRLSCAASGFTFSSYAMSWVRQAPGKGLEWVSQISPAGGYTNYADSVKGRFTISADTSKNTAYLQMNSLRAEDTAVYYCARELPYYRMSKVMDVWGQGTLVTVSS VL: DIQMTQSPSSLSASVGDRVTITCRASQYISSYLAWYQQKPGKAPKLLIYGASSRASGVPSRFSGSGSGTDFTLTISSLQPEDFATYYCQQYKSSPRTFGQGTKVEIKR"
0.3,1.7,"YW107.4.78 (antibody, V domains shown) VH: EVQLVESGGGLVQPGGSLRLSCAASGFTFSSYAMSWVRQAPGKGLEWVSQISPAGGYTNYADSVKGRFTISADTSKNTAYLQMNSLRAEDTAVYYCARELPYYRMSKVMDVWGQGTLVTVSS VL: DIQMTQSPSSLSASVGDRVTITCRASQYISSYLAWYQQKPGKAPKLLIYGASSRESGVPSRFSGSGSGTDFTLTISSLQPEDFATYYCQQYLSSPITFGQGTKVEIKR"
2,12,"YW107.4.51 (antibody, V domains shown) VH: EVQLVESGGGLVQPGGSLRLSCAASGFTFSSYAMSWVRQAPGKGLEWVSQISPAGGYTNYADSVKGRFTISADTSKNTAYLQMNSLRAEDTAVYYCARELPYYRMSKVMDVWGQGTLVTVSS VL: DIQMTQSPSSLSASVGDRVTITCRASQRISSYLAWYQQKPGKAPKLLIYGASRRESGVPSRFSGSGSGTDFTLTISSLQPEDFATYYCQQYKLSPLTFGQGTKVEIKR"
0.34,3.9,"YW107.4.76b (antibody, V domains shown) VH: EVQLVESGGGLVQPGGSLRLSCAASGFTFSSYAMSWVRQAPGKGLEWVSQISPAGGYTNYADSVKGRFTISADTSKNTAYLQMNSLRAEDTAVYYCARELPYYRMSKVMDVWGQGTLVTVSS VL: DIQMTQSPSSLSASVGDRVTITCRASQWVHSYLAWYQQKPGKAPKLLIYGASSRASGVPSRFSGSGSGTDFTLTISSLQPEDFATYYCQQYYGTPITFGQGTKVEIKR"
1.8,26,"YW107.4.59 (antibody, V domains shown) VH: EVQLVESGGGLVQPGGSLRLSCAASGFTFSSYAMSWVRQAPGKGLEWVSQISPAGGYTNYADSVKGRFTISADTSKNTAYLQMNSLRAEDTAVYYCARELPYYRMSKVMDVWGQGTLVTVSS VL: DIQMTQSPSSLSASVGDRVTITCRASQRIHSYLAWYQQKPGKAPKLLIYGASSRASGVPSRFSGSGSGTDFTLTISSLQPEDFATYYCQQYYISPLTFGQGTKVEIKR"
0.45,2.6,"YW107.4.66 (antibody, V domains shown) VH: EVQLVESGGGLVQPGGSLRLSCAASGFTFSSYAMSWVRQAPGKGLEWVSQISPAGGYTNYADSVKGRFTISADTSKNTAYLQMNSLRAEDTAVYYCARELPYYRMSKVMDVWGQGTLVTVSS VL: DIQMTQSPSSLSASVGDRVTITCRASQYISSYLAWYQQKPGKAPKLLIYGASSRASGVPSRFSGSGSGTDFTLTISSLQPEDFATYYCQQYIVSPLTFGQGTKVEIKR"
0.45,33,"YW107.4.20 (antibody, V domains shown) VH: EVQLVESGGGLVQPGGSLRLSCAASGFTFSSYAMSWVRQAPGKGLEWVSQISPAGGYTNYADSVKGRFTISADTSKNTAYLQMNSLRAEDTAVYYCARELPYYRMSKVMDVWGQGTLVTVSS VL: DIQMTQSPSSLSASVGDRVTITCRASQRTHSYLAWYQQKPGKAPKLLIYGASSRASGVPSRFSGSGSGTDFTLTISSLQPEDFATYYCQQYYGSPHTFGQGTKVEIKR"
0.44,4,"YW107.4.85 (antibody, V domains shown) VH: EVQLVESGGGLVQPGGSLRLSCAASGFTFSSYAMSWVRQAPGKGLEWVSQISPAGGYTNYADSVKGRFTISADTSKNTAYLQMNSLRAEDTAVYYCARELPYYRMSKVMDVWGQGTLVTVSS VL: DIQMTQSPSSLSASVGDRVTITCRASQYISSYLAWYQQKPGKAPKLLIYGASSGESGVPSRFSGSGSGTDFTLTISSLQPEDFATYYCQQYIISPITFGQGTKVEIKR"
0.3,1.7,"YW107.4.53 (antibody, V domains shown) VH: EVQLVESGGGLVQPGGSLRLSCAASGFTFSSYAMSWVRQAPGKGLEWVSQISPAGGYTNYADSVKGRFTISADTSKNTAYLQMNSLRAEDTAVYYCARELPYYRMSKVMDVWGQGTLVTVSS VL: DIQMTQSPSSLSASVGDRVTITCRASQYISSYLAWYQQKPGKAPKLLIYGASRRESGVPSRFSGSGSGTDFTLTISSLQPEDFATYYCQQYLNSPLTFGQGTKVEIKR"
0.1,3.4,"YW107.4.12 (antibody, V domains shown) VH: EVQLVESGGGLVQPGGSLRLSCAASGFTFSSYAMSWVRQAPGKGLEWVSQISPAGGYTNYADSVKGRFTISADTSKNTAYLQMNSLRAEDTAVYYCARELPYYRMSKVMDVWGQGTLVTVSS VL: DIQMTQSPSSLSASVGDRVTITCRASQYTHSYLAWYQQKPGKAPKLLIYGASSRASGVPSRFSGSGSGTDFTLTISSLQPEDFATYYCQQYYSSPITFGQGTKVEIKR"
0.58,7.8,"YW107.4.33b (antibody, V domains shown) VH: EVQLVESGGGLVQPGGSLRLSCAASGFTFSSYAMSWVRQAPGKGLEWVSQISPAGGYTNYADSVKGRFTISADTSKNTAYLQMNSLRAEDTAVYYCARELPYYRMSKVMDVWGQGTLVTVSS VL: DIQMTQSPSSLSASVGDRVTITCRASQYIHSYLAWYQQKPGKAPKLLIYGASRRASGVPSRFSGSGSGTDFTLTISSLQPEDFATYYCQQYYGTPHTFGQGTKVEIKR"
0.31,,"YW107.4.33a (antibody, V domains shown) VH: EVQLVESGGGLVQPGGSLRLSCAASGFTFSSYAMSWVRQAPGKGLEWVSQISPAGGYTNYADSVKGRFTISADTSKNTAYLQMNSLRAEDTAVYYCARELPYYRMSKVMDVWGQGTLVTVSS VL: DIQMTQSPSSLSASVGDRVTITCRASQYISSYLAWYQQKPGKAPKLLIYGASRRASGVPSRFSGSGSGTDFTLTISSLQPEDFATYYCQQYIGSPITFGQGTKVEIKR"
0.81,1.2,"YW107.4.42 (antibody, V domains shown) VH: EVQLVESGGGLVQPGGSLRLSCAASGFTFSSYAMSWVRQAPGKGLEWVSQISPAGGYTNYADSVKGRFTISADTSKNTAYLQMNSLRAEDTAVYYCARELPYYRMSKVMDVWGQGTLVTVSS VL: DIQMTQSPSSLSASVGDRVTITCRASQWIHSYLAWYQQKPGKAPKLLIYGASSSASGVPSRFSGSGSGTDFTLTISSLQPEDFATYYCQQYYSSPLTFGQGTKVEIKR"
0.93,2,"YW107.4.55 (antibody, V domains shown) VH: EVQLVESGGGLVQPGGSLRLSCAASGFTFSSYAMSWVRQAPGKGLEWVSQISPAGGYTNYADSVKGRFTISADTSKNTAYLQMNSLRAEDTAVYYCARELPYYRMSKVMDVWGQGTLVTVSS VL: DIQMTQSPSSLSASVGDRVTITCRASQLTHSYLAWYQQKPGKAPKLLIYGASSRASGVPSRFSGSGSGTDFTLTISSLQPEDFATYYCQQYYSSPLTFGQGTKVEIKR"
0.24,6,"YW107.4.17 (antibody, V domains shown) VH: EVQLVESGGGLVQPGGSLRLSCAASGFTFSSYAMSWVRQAPGKGLEWVSQISPAGGYTNYADSVKGRFTISADTSKNTAYLQMNSLRAEDTAVYYCARELPYYRMSKVMDVWGQGTLVTVSS VL: DIQMTQSPSSLSASVGDRVTITCRASQYTHSYLAWYQQKPGKAPKLLIYGASSRASGVPSRFSGSGSGTDFTLTISSLQPEDFATYYCQQYYSSPVTFGQGTKVEIKR"
0.43,5.5,"YW107.4.41 (antibody, V domains shown) VH: EVQLVESGGGLVQPGGSLRLSCAASGFTFSSYAMSWVRQAPGKGLEWVSQISPAGGYTNYADSVKGRFTISADTSKNTAYLQMNSLRAEDTAVYYCARELPYYRMSKVMDVWGQGTLVTVSS VL: DIQMTQSPSSLSASVGDRVTITCRASQWTHSYLAWYQQKPGKAPKLLIYGASRLESGVPSRFSGSGSGTDFTLTISSLQPEDFATYYCQQYFISPHTFGQGTKVEIKR"
0.84,2.7,"YW107.4.54 (antibody, V domains shown) VH: EVQLVESGGGLVQPGGSLRLSCAASGFTFSSYAMSWVRQAPGKGLEWVSQISPAGGYTNYADSVKGRFTISADTSKNTAYLQMNSLRAEDTAVYYCARELPYYRMSKVMDVWGQGTLVTVSS VL: DIQMTQSPSSLSASVGDRVTITCRASQPLHSYLAWYQQKPGKAPKLLIYGASSRASGVPSRFSGSGSGTDFTLTISSLQPEDFATYYCQQYYRSPLTFGQGTKVEIKR"
